According to the RNAGym collection of RNA variant scans (doi:10.7554/elife.90254):

B1: OR4K15 (parent)
chain: GUUAACGGUCAUAGGCCAUGGAAACUAGGAGCACCAUUUCGCUGCCAGUGAAGAAAUGAACAAAGAAAAUCUGGGCCAGGCAGGCAUCAAAAGAAAUAGUCUUGCGCUCAACCAGAAAGUCUGUAAUCAUUUUAAGGGUA

Variants of: B1
Assay: self-cleavage, relative activity (ratio to wild type); higher = more cleavage; in vitro, sequencing; the parent is a self-cleaving ribozyme
For A5G A55G, the self-cleavage was 1.15.
For A95G C107A, the self-cleavage was 0.02.
For C101U C105A, the self-cleavage was 0.01.
U39G U132C gave a self-cleavage of 0.94.
A27G A33G gave a self-cleavage of 0.96.
Work on G29A U39A yielded a self-cleavage of 1.8.
U26C A110G gave a self-cleavage of 0.08.
With A64G A98G the self-cleavage was 0.59.
In the case of G83U U102C, the self-cleavage is reported as 0.35.
Variant A52G A140G has a self-cleavage of 1.63.
For U49C A89G, the self-cleavage was 1.26.
Variant U37A A68G has a self-cleavage of 0.51.
With A52U A54G the self-cleavage was 1.25.
A59G U127C showed a self-cleavage of 0.7.
In the case of U57C A60U, the self-cleavage is reported as 1.78.
U87C A129U showed a self-cleavage of 0.73.
In the case of U43A U120G, the self-cleavage is reported as 1.16.
With A62U A67G the self-cleavage was 1.19.
A30G A66U showed a self-cleavage of 1.22.
Variant U26C U39A has a self-cleavage of 1.13.
U9A U122A gave a self-cleavage of 1.22.
With U39A A60G the self-cleavage was 0.99.
A22U showed a self-cleavage of 1.3.
C17U A67G showed a self-cleavage of 1.26.
A68G U122A gave a self-cleavage of 0.93.
With A110U A118U the self-cleavage was 0.75.
For U37C A52U, the self-cleavage was 0.57.
Work on U39G A51G yielded a self-cleavage of 1.75.
Work on A92G A118U yielded a self-cleavage of 0.78.
A82G C113U gave a self-cleavage of 0.05.
Variant A118U U130C has a self-cleavage of 0.4.
A13G U102C gave a self-cleavage of 1.18.
Variant U12A U43A has a self-cleavage of 1.63.
U26A A54G gave a self-cleavage of 1.95.
For U87C, the self-cleavage was 0.94.
In the case of G20U A94U, the self-cleavage is reported as 2.23.
For A125U U127C, the self-cleavage was 1.28.
In the case of A55G A89G, the self-cleavage is reported as 0.59.
For U2A A18U, the self-cleavage was 1.37.
With A68G U127A the self-cleavage was 1.01.
Variant A68C A78G has a self-cleavage of 0.24.
A22C U131G showed a self-cleavage of 0.94.
For U72A U127A, the self-cleavage was 0.64.
Work on A36U U124C yielded a self-cleavage of 1.26.
A126G A134G gave a self-cleavage of 1.17.
For A51G A56G, the self-cleavage was 1.22.
Work on A27U A86G yielded a self-cleavage of 1.43.
With A62U A111U the self-cleavage was 0.07.
In the case of U49A A140G, the self-cleavage is reported as 1.41.
A67G U72A gave a self-cleavage of 0.26.
Work on U9G A117C yielded a self-cleavage of 0.41.
Variant A51G A110G has a self-cleavage of 0.08.
Variant A4G A95C has a self-cleavage of 1.49.
With A23G G119A the self-cleavage was 1.38.
Work on G15A A56G yielded a self-cleavage of 1.45.
A55U U139C gave a self-cleavage of 0.56.
U9A U37C showed a self-cleavage of 1.63.
Variant A18U U133A has a self-cleavage of 1.57.
A117U A135G showed a self-cleavage of 0.7.
Work on A23G A62U yielded a self-cleavage of 1.09.
In the case of A47U A66U, the self-cleavage is reported as 0.99.
In the case of C34U A64G, the self-cleavage is reported as 0.98.
A55G G119C gave a self-cleavage of 1.03.
G84U A114G gave a self-cleavage of 0.45.
For A23G A54G, the self-cleavage was 0.6.
Work on A22G A33G yielded a self-cleavage of 0.98.
For A94G A125G, the self-cleavage was 0.75.
U39C A110U showed a self-cleavage of 1.06.
C71A U124C showed a self-cleavage of 0.22.
A52U G74A gave a self-cleavage of 0.16.
A64G A92G gave a self-cleavage of 1.48.
With A63G U103A the self-cleavage was 0.88.
Variant U97C A110G has a self-cleavage of 0.11.
In the case of A60U A118G, the self-cleavage is reported as 1.58.
C105U U139C showed a self-cleavage of 0.08.
C35U A96G gave a self-cleavage of 0.88.
U3G A5C gave a self-cleavage of 1.53.
Work on U19A G44A yielded a self-cleavage of 2.16.
A33G A125G gave a self-cleavage of 0.23.
Variant U57C G73A has a self-cleavage of 0.15.
Work on G15C A111U yielded a self-cleavage of 0.11.
U57A A78U showed a self-cleavage of 0.16.
With A52U U122A the self-cleavage was 0.96.
U37C A54G showed a self-cleavage of 1.51.
For C25U A135G, the self-cleavage was 1.44.
A47C U120C showed a self-cleavage of 1.
For U2C C42U, the self-cleavage was 1.46.
Work on A23G A60G yielded a self-cleavage of 0.97.
G1A A114G gave a self-cleavage of 1.32.
In the case of A86G A114G, the self-cleavage is reported as 0.48.
Variant A54G A64U has a self-cleavage of 1.67.
Work on A68G A92U yielded a self-cleavage of 1.87.
With U72A C128U the self-cleavage was 0.15.
Variant G84A U102G has a self-cleavage of 1.29.
In the case of A67G U139C, the self-cleavage is reported as 1.64.
U19A A59G gave a self-cleavage of 1.12.
With A63G A111G the self-cleavage was 0.02.
Work on G44U A52U yielded a self-cleavage of 0.
Variant A11G A59G has a self-cleavage of 0.88.
A30U A68U gave a self-cleavage of 1.5.
A24G A135G showed a self-cleavage of 1.67.
With G7A U132C the self-cleavage was 1.2.
G15A C113U showed a self-cleavage of 0.03.
Variant U87A U122A has a self-cleavage of 1.73.
A67G U87C gave a self-cleavage of 1.19.
In the case of G41U A117G, the self-cleavage is reported as 1.93.
In the case of A18U A66C, the self-cleavage is reported as 1.22.
Work on A33G A96G yielded a self-cleavage of 0.96.
A22G U102C showed a self-cleavage of 1.56.
For U12A U70A, the self-cleavage was 0.56.
With U97C A126G the self-cleavage was 1.22.
In the case of A89U U97C, the self-cleavage is reported as 1.58.
With A47G A110U the self-cleavage was 1.15.
With A110U A140G the self-cleavage was 2.04.
G29A A78G showed a self-cleavage of 0.28.
With A27C U87A the self-cleavage was 1.13.
Work on A13G A89C yielded a self-cleavage of 0.
Work on A27G A111G yielded a self-cleavage of 0.03.
Work on A82U U133C yielded a self-cleavage of 0.07.
In the case of A54G A134G, the self-cleavage is reported as 1.2.
G31A A55G showed a self-cleavage of 1.7.
In the case of C61U U87C, the self-cleavage is reported as 1.35.
U2C U70A showed a self-cleavage of 0.71.
For C45G, the self-cleavage was 1.37.
A30C U103G showed a self-cleavage of 0.01.
For A51G U130A, the self-cleavage was 1.63.
G41A A52G gave a self-cleavage of 1.07.
U37A A90G showed a self-cleavage of 0.73.
For A36U U97C, the self-cleavage was 0.37.
C6U A116G showed a self-cleavage of 0.34.
U12C A47G gave a self-cleavage of 1.3.
Variant U9C U127C has a self-cleavage of 1.44.
In the case of U37A A135U, the self-cleavage is reported as 2.22.
Work on G7A A140U yielded a self-cleavage of 1.62.
U39C A91G gave a self-cleavage of 1.4.
Variant A33U A55G has a self-cleavage of 1.84.
A36U A116G gave a self-cleavage of 0.96.
For U3A A95G, the self-cleavage was 1.42.
For A118U U139A, the self-cleavage was 0.6.
For A30G G137U, the self-cleavage was 0.71.
In the case of A96G A114U, the self-cleavage is reported as 0.07.
A92G U103A gave a self-cleavage of 0.8.
C34U A68G showed a self-cleavage of 1.8.
With A47C U108C the self-cleavage was 0.02.
G31A C105U showed a self-cleavage of 0.25.
In the case of A60U A86U, the self-cleavage is reported as 1.67.
A30U U49A gave a self-cleavage of 1.3.
For A13G U133C, the self-cleavage was 1.84.
Work on A110G U132A yielded a self-cleavage of 0.19.
U2A A114U showed a self-cleavage of 0.33.
For G29A A125G, the self-cleavage was 0.24.
C16A gave a self-cleavage of 1.69.
With A13G A36G the self-cleavage was 0.49.
With U43C A125G the self-cleavage was 0.53.
With A24G C109U the self-cleavage was 0.46.
For G31C U139C, the self-cleavage was 1.53.
In the case of U2G A91G, the self-cleavage is reported as 1.16.
A55U A59U showed a self-cleavage of 1.92.
Work on A30G A96U yielded a self-cleavage of 1.72.
A62U G93A gave a self-cleavage of 2.2.
Work on U37C A91U yielded a self-cleavage of 2.
U87C A94U gave a self-cleavage of 1.37.
In the case of U57A A69G, the self-cleavage is reported as 0.95.
A24U A54G gave a self-cleavage of 1.46.
In the case of A22U A129C, the self-cleavage is reported as 1.58.
Variant A52G U97A has a self-cleavage of 1.33.
For U108G, the self-cleavage was 0.02.
